US20260250318A1, “COMPOSITIONS AND METHODS FOR CROSSING THE BLOOD BRAIN BARRIER” (VOYAGER THERAPEUTICS, INC., priority 2022, published 2026)

Tested on: mouse cells derived from the midbrain area
Assay: scRNA-Seq and IHC of midbrain cells transduced by TTM-002
Type: in vivo, SCID CB17 mice
Details: for % GFP Cells/Cluster: AAV_TTM-002.GFP particles, GFP sorted midbrain cells; for % GFP Cells/Cluster / % Payload Cells/Cluster: 28 days; for % Payload Cells/Cluster: AAV_TTM-002.payload particles, midbrain scRNA-Seq
Experimental: AAV particles were generated with the TTM-002 capsid variant encapsulating a GFP transgene (AAV_TTM-002.GFP) or a payload driven by a heterologous CBA constitutive promoter (AAV_TTM-002.Payload).
Two tandem single cell RNA sequencing runs (scRNA-Seq) of mouse cells derived from the midbrain area were performed. In the first run, cells were pooled from two mice at day 28 post treatment with AAV_TTM-002.Payload particles. In the second run we treated with AAV_TTM-002.GFP particles, in the same manner but without xenografts. Orthotopic xenografts of MDA-MB-361-Luc #1 high passage cells grown as tumorspheres (in tumorsphere media; Sigma #C-28070) were injected (250,000 cells/2 μL/mouse) intracranially into 2-month old female SCID CB17 (Mutation: Icr-Prkdcscid/IcrIcoCrl) congenic immunodeficient mice (Charles River Laboratories). The injections were 2.5 mm (lateral),-1 mm (posterior) with respect to bregma, lowered-3 mm ventral and raised +0.5 mm dorsal to a final-2.5 mm ventral position. Two days later, dilutions of the AAV_TTM-002.Payload particles (run 1), or in the case without xenografts, dilutions of AAV_TTM-002.GFP particles (run 2) were prepared. IV injections of 100 μL (2.5e11 VG/animal) of the AAV_TTM-002.payload particles or AAV_TTM-002.GFP particles were administered through the tail veins of mice (n=5 mice per groups). At 7 days post-injection, mice from run 1 were imaged in an AmiHTX (Spectral Imager) for bioluminescence of the human tumor cells due to expression of luciferase in response to intraperitoneal luciferin injections.
At 28 days post-injection with the AAV_TTM-002.payload particles or AAV_TTM-002.GFP particles, two mice from each run were necropsied, brain samples were isolated, and the midbrain was dissected and isolated. The midbrain samples were then exposed to a cold protease inhibitor (Creative Biomart #NATE-0633) and were dissociated at 6 degrees centigrade. For the samples collected from the mice of run 1 (AAV_TTM-002.Payload particles), myelin depletion was performed (Miltenyi, #130-096-731), cells were filtered through a […] mesh to filter out neurons) and loaded on a 10X chromium G chip. scRNA-Seq was performed (10X Genomics) and samples were sequenced on a NextGen500 Sequencing machine (Illumina). For the samples collected from run 2 (AAV_TTM-002.GFP particles and no xenografts), the cells were not myelin depleted or filtered through […] mesh to include neurons. The cells isolated after run 2 were FACS sorted for GFP+/7AAD− (live GFP+ cells). The resultant cells were loaded on a 10× chromium G chip and the scRNA-Seq was run and processed (10× Genomics).
For run 1, the scRNA-Seq data was filtered to include cells with only greater than 1000 genes per cell and less than 5000, and less than 20 percent mitochondrial gene expression. For run 2, the scRNA-Seq data was filtered to include cells with only greater than 200 genes per cell and less than 5000, and less than 20 percent mitochondrial gene expression. The data were normalized, scaled, and integrated into one combined dataset. Clusters were generated with a resolution of 0.3 and each cluster identity was determined using a panel of cell type specific genes (e.g., as described in Brown et al., 2021. “Deep Parallel Characterization of AAV Tropism and AAV-Mediated Transcriptional Changes via Single-Cell RNA Sequencing”. Front. Immunol. 12:730825; the contents of which are hereby incorporated by reference in its entirety). The percentage of GFP sorted cells per cluster was calculated as was the percentage of payload expressing genes per cluster as parallel measures of TTM-002 transduction.

[1] = cluster Vascular smooth muscle cells (VSC)

B1: TTM-002: AAV9 capsid variant comprising HDSPHK (SEQ ID NO: 2) in loop IV (protein)
chain 1: MAADGYLPDWLEDNLSEGIREWWALKPGAPQPKANQQHQDNARGLVLPGYKYLGPGNGLDKGEPVNAADAAALEHDKAYDQQLKAGDNPYLKYNHADAEFQERLKEDTSFGGNLGRAVFQAKKRLLEPLGLVEEAAKTAPGKKRPVEQSPQEPDSSAGIGKSGAQPAKKRLNFGQTGDTESVPDPQPIGEPPAAPSGVGSLTMASGGGAPVADNNEGADGVGSSSGNWHCDSQWLGDRVITTSTRTWALPTYNNHLYKQISNSTSGGSSNDNAYFGYSTPWGYFDFNRFHCHFSPRDWQRLINNNWGFRPKRLNFKLFNIQVKEVTDNNGVKTIANNLTSTVQVFTDSDYQLPYVLGSAHEGCLPPFPADVFMIPQYGYLTLNDGSQAVGRSSFYCLEYFPSQMLRTGNNFQFSYEFENVPFHSSYAHSQSLDRLMNPLIDQYLYYLSKTINGHDSPHKSGQNQQTLKFSVAGPSNMAVQGRNYIPGPSYRQQRVSTTVTQNNNSEFAWPGASSWALNGRNSLMNPGPAMASHKEGEDRFFPLSGSLIFGKQGTGRDNVDADKVMITNEEEIKTTNPVATESYGQVATNHQSAQAQAQTGWVQNQGILPGMVWQDRDVYLQGPIWAKIPHTDGNFHPSPLMGGFGMKHPPPQILIKNTPVPADPPTAFNKDKLNSFITQYSTGQVSVEIEWELQKENSKRWNPEIQYTSNYYKSNNVEFAVNTEGVYSEPRPIGTRYLTRNL
chain 2: GHDSPHKSGQNQQT
In the case of B1, the “IHC co-staining of GFP with cell markers” value (brain samples, AAV_TTM-002.GFP) is reported as “GFP co-localized with some but not all Olig2+ cells”, the “% GFP Cells/Cluster” value (cluster Astrocyte) is reported as 2.37% and the “% Payload Cells/Cluster” value (cluster Astrocyte) is reported as 4.50%. For the same molecule, the “% GFP Cells/Cluster” value (cluster Committed Oligos-2) was 0.00%, the “% Payload Cells/Cluster” value (cluster Committed Oligos-2) was 0.00% and the “% GFP Cells/Cluster” value (cluster Committed Oligos) was 0.00%. For the same molecule, the “% Payload Cells/Cluster” value (cluster Committed Oligos) was 1.90%, the “% GFP Cells/Cluster” value (cluster Endothelial-1) was 3.45% and the “% Payload Cells/Cluster” value (cluster Endothelial-1) was 3.09%. The “% GFP Cells/Cluster” value (cluster Endothelial-2) was 6.58%, the “% Payload Cells/Cluster” value (cluster Endothelial-2) was 6.58% and the “% GFP Cells/Cluster” value (cluster Macrophages) was 0.00%. For the same molecule, the “% Payload Cells/Cluster” value (cluster Macrophages) was 0.00%, the “% GFP Cells/Cluster” value (cluster Mature Oligos) was 0.00% and the “% Payload Cells/Cluster” value (cluster Mature Oligos) was 3.85%. For the same molecule, the “% GFP Cells/Cluster” value (cluster Microglia) was 0.00%, the “% Payload Cells/Cluster” value (cluster Microglia) was 0.40% and the “% GFP Cells/Cluster” value (cluster Oligodendrocytes) was 0.00%. The “% Payload Cells/Cluster” value (cluster Oligodendrocytes) was 0.00%, the “% GFP Cells/Cluster” value (cluster Pericytes) was 0.77% and the “% Payload Cells/Cluster” value (cluster Pericytes) was 4.23%. For the same molecule, the “% GFP Cells/Cluster” value (cluster Vascular and leptomeningeal Cells (VLM)) was 2.38%, the “% Payload Cells/Cluster” value (cluster Vascular and leptomeningeal cells (VLM)) was 0.00% and the “% GFP Cells/Cluster” value [1] was 1.03%. The “% Payload Cells/Cluster” value [1] was 1.72%, the “proportion of payload positive cells per cell type” value (scRNA-Seq, AAV_TTM-002.Payload, day 28) was “endothelial cells had the highest proportion of payload positive cells” and the “proportion of GFP positive cells per cell type” value (scRNA-Seq, GFP+ sorted cells, AAV_TTM-002.GFP, day 28) was “endothelial cells had the highest proportion of GFP positive cells”.
